Consider 3 molecules from doi:10.1101/2025.10.01.679806 (bioRxiv, 2025).

In general, Kd refers to the constant that tells how readily two partners part at equilibrium. One may read the stoichiometry N as a count of units in the complex or per binding partner.

Data set [1] deals with Bpa 31-146 (Mycobacterium tuberculosis) (UniProt P9WKX3). Kind of data set: NMR CPMG relaxation dispersion.
For data set [2] the target is unchanged. Kind of data set: NMR titration.
Data set [3] concerns the molecule itself. Kind of data set: methyl-TROSY NMR.
Data set [4] concerns the molecule itself. The experiment in a line: NMR pulsed-field gradient diffusion.
Data set [5] deals with the molecule itself. Kind of data set: native MS.

“And” between values parts separate entries of the source, which are not always exact repeats. Equal values may be shown once.

For “DNA-binding domain of human telomeric repeat-binding factor 1 (residues 378-430) (domain or fragment)”, the exchange rate between Bpa free and bound with hTRF1 (CPMG) in data set [1] is above 1500 s⁻¹. In data set [2], the Kd is < 200 nM and 1500 nM; the stoichiometry N (hTRF1 molecules per Bpa dodecamer) worked out at 3.

B1: Bpa 31-146 (domain or fragment)
chain: DSDESSLTDLVEQPAKVMRIGTMIKQLLEEVRAAPLDEASRNRLRDIHATSIRELEDGLAPELREELDRLTLPFNEDAVPSDAELRIAQAQLVGWLEGLFHGIQTALFAQQMAARA
On to B1, for which the “stoichiometry N” value in data set [3] is 12.

B2: wild-type (WT) Mycobacterium tuberculosis bacterial proteasome activator Bpa (Rv3780) (natural protein)
chain: MVIGLSTGSDDDDVEVIGGVDPRLIAVQENDSDESSLTDLVEQPAKVMRIGTMIKQLLEEVRAAPLDEASRNRLRDIHATSIRELEDGLAPELREELDRLTLPFNEDAVPSDAELRIAQAQLVGWLEGLFHGIQTALFAQQMAARAQLQQMRQGALPPGVGKSGQHGHGTGQYL
On to B2, for which the “stoichiometry N” value was found to be 4 in data set [4] and 2 in data set [5].
